Laboratory results reported in patent US10500249B2, “Compositions and methods for preventing or treating diseases, conditions, or processes characterized by aberrant fibroblast proliferation and extracellular matrix deposition” (MOERAE MATRIX, INC., priority 2014, dated 2019).

Tests used:
[1] = system: human fetal lung fibroblasts (IMR-90), fibronectin; assay: TGF-β-mediated fibronectin expression; assay type: cell-based; conditions: 1 h pre-treatment, then TGF-β1 (2 ng/ml) 72 h
Protocol: Fibronection was measured as secreted fragments in the conditioned media. Equal amounts (14 μg) of total proteins from the conditioned media were loaded in each lane.

[2] = system: bleomycin-induced lung fibrosis; assay: Bleomycin mouse model of pulmonary fibrosis (prevention model); assay type: in vivo, C57BL/6 mice; conditions: 25, 50 or 75 μg/kg daily IP, day 7 through day 21
Protocol: A mouse model of pulmonary fibrosis was generated by administering 0.025 U of bleomycin/PBS intratracheally to C57BL/6 mice. […] At 21 day post bleomycin delivery (for prevention model) or 28 post bleomycin delivery (for treatment model), groups of mice were sacrificed with a sodium pentobarbital injection (120 mg/kg) and the chest cavity was opened. The right mainstem bronchus was ligated and the right lung was removed. The trachea was cannulated and the left lung was perfused with 4% formaldehyde at 21 cm H2O pressure. The tissue blocks then were embedded in paraffin, and […] sections were prepared for staining. Sections from each animal were stained with hematoxylin and eosin (H&E) to visualize cells or with Masson's Trichrome staining to highlight collagen deposition. […] Stained sections were mounted onto a labeled glass slide with organic mounting medium.
Briefly, fibrotic loci in the lungs of the mice were induced by delivering intratracheally about 0.025 U of bleomycin (dissolved in PBS) to C57BL/6 mice. […] Briefly, mice were sacrificed with a sodium pentobarbital injection (120 mg/kg) and the chest cavity was opened. The right mainstem bronchus was ligated and the right lung was removed. The trachea was cannulated and the left lung was perfused with 4% formaldehyde at 21 cm H2O pressure. The tissue blocks then were embedded in paraffin, and […] sections were prepared, and stained with hematoxylin and eosin (H&E; for pathological examination) or Masson's Trichrome (for collagen staining)
Next, total collagen levels in the lungs of the bleomycin-injured mice (FIG. 12) were analyzed quantitatively by computing a constant conversion factor (7.5) for collagen from hydroxyproline concentrations (Neuman R. and Logan M, J Biol Chem., 186(2):549-56, 1950, incorporated by reference).
Next, the effect of increasing doses of MK2 peptide inhibitors on collagen deposition was examined in vivo using the bleomycin mouse model of idiopathic pulmonary fibrosis (prevention model). Briefly, C57-BL/6 mice were subjected to bleomycin injury at day 0.

CLK2 (h) = biological target: T1, CLK2 (h) (Homo sapiens, UniProt P49760); assay: Kinase Profiling Assay; assay type: biochemical; conditions: 100 μM
T1 construct: purchased Millipore
T1 sequence (P49760 whole entry): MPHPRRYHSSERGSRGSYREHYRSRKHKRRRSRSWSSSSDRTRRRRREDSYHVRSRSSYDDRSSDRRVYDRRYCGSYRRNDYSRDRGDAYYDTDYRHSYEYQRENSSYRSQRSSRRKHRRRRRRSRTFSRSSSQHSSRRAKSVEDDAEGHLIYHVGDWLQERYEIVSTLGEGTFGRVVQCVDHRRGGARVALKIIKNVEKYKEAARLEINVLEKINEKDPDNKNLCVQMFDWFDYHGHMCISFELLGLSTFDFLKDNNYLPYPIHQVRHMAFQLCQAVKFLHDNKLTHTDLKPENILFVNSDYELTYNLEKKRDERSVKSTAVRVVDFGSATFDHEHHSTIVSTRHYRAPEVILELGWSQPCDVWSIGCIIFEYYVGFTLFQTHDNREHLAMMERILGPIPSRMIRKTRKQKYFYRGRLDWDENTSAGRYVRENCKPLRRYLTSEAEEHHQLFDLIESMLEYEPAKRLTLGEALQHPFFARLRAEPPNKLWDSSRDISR
Summary of the method: (§1)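 Activity remaining relative to an uninhibited control was determined by scintillation counting of labeled substrate bound to a negatively charged filter. Radiolabeled phosphate came from ATP; the substrate carried positive charge. Duplicate measurements, within a 266-kinase human panel.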

CK1γ1 (h) = biological target: T2, CK1γ1 (h) (Homo sapiens, UniProt Q9HCP0); assay: Kinase Profiling Assay; assay type: biochemical; conditions: 100 μM
T2 construct: purchased Millipore
T2 sequence (Q9HCP0 whole entry): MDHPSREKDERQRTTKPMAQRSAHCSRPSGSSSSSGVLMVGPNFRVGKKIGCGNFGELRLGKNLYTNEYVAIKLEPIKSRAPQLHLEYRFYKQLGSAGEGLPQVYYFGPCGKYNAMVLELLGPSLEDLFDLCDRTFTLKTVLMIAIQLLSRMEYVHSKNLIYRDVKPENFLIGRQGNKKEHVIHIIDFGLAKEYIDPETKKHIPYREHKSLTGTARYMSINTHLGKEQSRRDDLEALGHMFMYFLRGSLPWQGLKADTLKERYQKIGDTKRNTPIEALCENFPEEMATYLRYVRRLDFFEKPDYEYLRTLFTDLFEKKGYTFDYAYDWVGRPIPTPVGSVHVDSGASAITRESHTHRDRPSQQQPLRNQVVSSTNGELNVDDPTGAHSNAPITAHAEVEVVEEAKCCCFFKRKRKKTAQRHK
Summary of the method: as §1

PAK3 (h) = biological target: T3, PAK3 (h) (Homo sapiens, UniProt O75914); assay: Kinase Profiling Assay; assay type: biochemical; conditions: 100 μM
T3 construct: purchased Millipore
T3 sequence (O75914 whole entry): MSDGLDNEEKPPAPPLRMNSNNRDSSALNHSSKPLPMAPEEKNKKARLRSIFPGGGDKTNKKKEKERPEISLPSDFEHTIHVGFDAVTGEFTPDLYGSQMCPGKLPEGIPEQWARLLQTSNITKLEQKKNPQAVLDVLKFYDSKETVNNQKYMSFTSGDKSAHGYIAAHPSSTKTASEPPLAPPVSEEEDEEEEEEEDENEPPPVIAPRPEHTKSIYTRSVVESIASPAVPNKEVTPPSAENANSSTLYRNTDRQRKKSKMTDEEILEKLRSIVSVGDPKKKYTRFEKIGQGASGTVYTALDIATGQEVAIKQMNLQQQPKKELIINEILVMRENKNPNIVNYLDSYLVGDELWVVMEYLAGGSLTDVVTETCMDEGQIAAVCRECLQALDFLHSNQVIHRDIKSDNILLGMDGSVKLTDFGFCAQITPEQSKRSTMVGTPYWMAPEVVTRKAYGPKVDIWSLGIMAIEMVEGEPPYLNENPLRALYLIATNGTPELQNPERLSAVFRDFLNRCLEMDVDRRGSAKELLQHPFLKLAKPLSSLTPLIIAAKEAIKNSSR
Summary of the method: as §1

Plk1 (h) = Plk1 (h) (Homo sapiens, UniProt P53350); assay: Kinase Profiling Assay; assay type: biochemical; conditions: 100 μM
Sequence of Plk1 (h) (P53350 whole entry): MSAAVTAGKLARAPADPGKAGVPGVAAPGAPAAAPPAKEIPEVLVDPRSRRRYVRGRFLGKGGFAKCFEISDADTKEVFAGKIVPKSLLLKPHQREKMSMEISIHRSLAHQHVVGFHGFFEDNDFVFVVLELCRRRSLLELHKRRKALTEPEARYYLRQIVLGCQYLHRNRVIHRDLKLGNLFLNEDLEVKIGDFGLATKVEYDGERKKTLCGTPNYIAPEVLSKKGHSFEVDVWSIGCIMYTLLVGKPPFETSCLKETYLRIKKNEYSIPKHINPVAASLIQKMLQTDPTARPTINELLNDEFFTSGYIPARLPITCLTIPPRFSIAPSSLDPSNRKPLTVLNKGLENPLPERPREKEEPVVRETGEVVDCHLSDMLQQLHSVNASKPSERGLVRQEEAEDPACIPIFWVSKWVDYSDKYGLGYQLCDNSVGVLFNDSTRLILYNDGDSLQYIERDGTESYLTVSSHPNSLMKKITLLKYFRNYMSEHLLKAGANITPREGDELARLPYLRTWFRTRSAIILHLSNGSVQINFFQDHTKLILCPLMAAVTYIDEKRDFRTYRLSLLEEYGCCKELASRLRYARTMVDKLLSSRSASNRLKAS
Summary of the method: as §1

[3] = system: human fetal lung fibroblasts (IMR-90), α-SMA; assay: TGF-β-induced myofibroblast activation, α-SMA immunoblot; assay type: cell-based; conditions: 1 h pre-treatment, then TGF-β1 (2 ng/ml) 48 h
Description: Cell lysates were immunoblotted against antibodies for α-SMA (a marker for myofibroblast activation) and GAPDH (loading control).

c-RAF (h) = biological target: T4, c-RAF (h) (Homo sapiens, UniProt P04049); assay: Kinase Profiling Assay; assay type: biochemical; conditions: 100 μM
T4 construct: purchased Millipore
Summary of the method: as §1

CK1γ2 (h) = biological target: T5, CK1γ2 (h) (Homo sapiens, UniProt P78368); assay: Kinase Profiling Assay; assay type: biochemical; conditions: 100 μM
T5 construct: purchased Millipore
T5 sequence (P78368 whole entry): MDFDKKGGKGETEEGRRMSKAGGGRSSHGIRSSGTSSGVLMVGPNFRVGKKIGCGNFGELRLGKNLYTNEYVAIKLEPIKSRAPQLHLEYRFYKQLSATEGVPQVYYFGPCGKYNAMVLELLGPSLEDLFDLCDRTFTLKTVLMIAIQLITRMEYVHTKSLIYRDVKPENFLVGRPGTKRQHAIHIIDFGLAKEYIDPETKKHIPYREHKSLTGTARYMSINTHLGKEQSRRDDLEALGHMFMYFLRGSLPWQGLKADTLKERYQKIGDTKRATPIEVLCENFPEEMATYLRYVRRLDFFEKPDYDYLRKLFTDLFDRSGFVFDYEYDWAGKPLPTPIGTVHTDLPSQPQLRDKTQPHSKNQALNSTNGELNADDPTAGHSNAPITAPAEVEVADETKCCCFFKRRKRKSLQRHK
Summary of the method: as §1

PAK6 (h) = biological target: T6, PAK6 (h) (Homo sapiens, UniProt Q9NQU5); assay: Kinase Profiling Assay; assay type: biochemical; conditions: 100 μM
T6 construct: purchased Millipore
T6 sequence (Q9NQU5 whole entry): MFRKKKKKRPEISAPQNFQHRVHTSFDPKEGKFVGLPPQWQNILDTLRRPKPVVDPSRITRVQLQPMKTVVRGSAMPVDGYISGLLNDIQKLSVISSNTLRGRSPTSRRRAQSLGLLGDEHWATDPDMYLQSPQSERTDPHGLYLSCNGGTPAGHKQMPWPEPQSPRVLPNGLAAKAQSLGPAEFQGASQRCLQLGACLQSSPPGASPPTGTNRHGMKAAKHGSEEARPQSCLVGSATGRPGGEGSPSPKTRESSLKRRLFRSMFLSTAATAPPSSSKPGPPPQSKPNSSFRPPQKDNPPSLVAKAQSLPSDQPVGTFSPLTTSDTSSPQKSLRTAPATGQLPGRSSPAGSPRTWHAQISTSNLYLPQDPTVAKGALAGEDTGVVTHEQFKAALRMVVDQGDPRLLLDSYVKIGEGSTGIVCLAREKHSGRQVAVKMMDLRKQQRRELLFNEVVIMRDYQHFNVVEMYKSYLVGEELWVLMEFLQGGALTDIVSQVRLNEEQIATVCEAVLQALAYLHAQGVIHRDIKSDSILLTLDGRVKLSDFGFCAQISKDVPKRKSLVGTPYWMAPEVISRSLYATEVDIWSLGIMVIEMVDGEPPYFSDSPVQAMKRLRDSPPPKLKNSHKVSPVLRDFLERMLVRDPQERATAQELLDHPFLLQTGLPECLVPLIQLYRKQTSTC
Summary of the method: as §1

Which results are given for “YARAAARQARAKALNRQLGVA (Mammalian) [MMI-0200]”?
protein level of fibronectin (secreted fragments in conditioned media) [1]: no changes in the protein level; collagen levels in the lung (Masson's blue trichrome staining), dose response [2]: did not reduce, but rather increased the collagen deposition; % activity (CLK2 (h)): 97%; % activity (CK1γ1 (h)): 98%; % activity (PAK3 (h)): 50%; % activity (Plk1 (h)): 128%; protein level of α-smooth muscle actin (α-SMA) [3]: no changes in the protein level

With “HRRIKAWLKKIKALARQLGVAA (Mammalian) [MMI-0500]” as the sequence, how does the “% activity” value (c-RAF (h)) read?
The value was 19%.

FAKLAARLYRKALARQLGVAA [MMI-0300] was tested. Which “% activity” value (CK1γ2 (h)) did it give?
The value was 123%.

And the “% activity” value (PAK3 (h))?
Its value is 140%.

KAFAKLAARLYRKALARQLGVAA [MMI-0400] was tested. Which “% activity” value (PAK6 (h)) did it give?
The value was 100%.
